# Test results reported in the supplement of paper PMC5998384.
# Legend:
# HeLa Kyoto [1] = test: melting temperature (median over replicates), in situ; higher = more thermally stable
# HeLa Kyoto [2] = test: solubility change mitosis vs G1/S (difference of NP-40 vs SDS log2 ratios) (log2 ratio difference); higher = more soluble in mitosis
# HeLa Kyoto [3] = test: solubility in G1/S (NP-40 vs SDS abundance) (log2 ratio); higher = more soluble; conditions: cell cycle stage: G1/S
# 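For melting temperature (median over replicates), in situ in this document: HeLa Kyoto cells synchronized by double thymidine or nocodazole block, proteins quantified by TMT10plex mass spectrometry, three independent biological replicates.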
# 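For solubility change mitosis vs G1/S (difference of NP-40 vs SDS log2 ratios) in this document: synchronized HeLa Kyoto cells (double thymidine block for G1/S, nocodazole release for mitosis), protein amounts in NP-40 versus SDS lysates quantified by mass spectrometry, three biological replicates.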
# 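For solubility in G1/S (NP-40 vs SDS abundance) in this document: HeLa Kyoto cells arrested at G1/S by double thymidine block, proteins quantified by TMT10plex mass spectrometry in mild NP-40 versus SDS extracts, three biological replicates.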
Sequence,melting temperature (HeLa Kyoto [1]; cell cycle stage: G1/S) [°C],melting temperature (HeLa Kyoto [1]; cell cycle stage: mitosis) [°C],solubility change mitosis (log2) (HeLa Kyoto [2]),solubility in G1/S (log2) (HeLa Kyoto [3])
MGEFKVHRVRFFNYVPSGIRCVAYNNQSNRLAVSRTDGTVEIYNLSANYFQEKFFPGHESRATEALCWAEGQRLFSAGLNGEIMEYDLQALNIKYAMDAFGGPIWSMAASPSGSQLLVGCEDGSVKLFQITPDKIQFERNFDRQKSRILSLSWHPSGTHIAAGSIDYISVFDVKSGSAVHKMIVDRQYMGVSKRKCIVWGVAFLSDGTIISVDSAGKVQFWDSATGTLVKSHLIANADVQSIAVADQEDSFVVGTAEGTVFHFQLVPVTSNSSEKQWVRTKPFQHHTHDVRTVAHSPTALISGGTDTHLVFRPLMEKVEVKNYDAALRKITFPHRCLISCSKKRQLLLFQFAHHLELWRLGSTVATGKNGDTLPLSKNADHLLHLKTKGPENIICSCISPCGSWIAYSTVSRFFLYRLNYEHDNISLKRVSKMPAFLRSALQILFSEDSTKLFVASNQGALHIVQLSGGSFKHLHAFQPQSGTVEAMCLLAVSPDGNWLAASGTSAGVHVYNVKQLKLHCTVPAYNFPVTAMAIAPNTNNLVIAHSDQQVFEYSIPDKQYTDWSRTVQKQGFHHLWLQRDTPITHISFHPKRPMHILLHDAYMFCIIDKSLPLPNDKTLLYNPFPPTNESDVIRRRTAHAFKISKIYKPLLFMDLLDERTLVAVERPLDDIIAQLPPPIKKKKFGT [CIRH1A],54.3,52.3,0.349,-1.13
MGLCKCPKRKVTNLFCFEHRVNVCEHCLVANHAKCIVQSYLQWLQDSDYNPNCRLCNIPLASRETTRLVCYDLFHWACLNERAAQLPRNTAPAGYQCPSCNGPIFPPTNLAGPVASALREKLATVNWARAGLGLPLIDEVVSPEPEPLNTSDFSDWSSFNASSTPGPEEVDSASAAPAFYSQAPRPPASPGRPEQHTVIHMGNPEPLTHAPRKVYDTRDDDRTPGLHGDCDDDKYRRRPALGWLARLLRSRAGSRKRPLTLLQRAGLLLLLGLLGFLALLALMSRLGRAAADSDPNLDPLMNPHIRVGPS [ZFPL1],57.4,,-0.0676,0.256
MKTRQNKDSMSMRSGRKKEAPGPREELRSRGRASPGGVSTSSSDGKAEKSRQTAKKARVEEASTPKVNKQGRSEEISESESEETNAPKKTKTEQELPRPQSPSDLDSLDGRSLNDDGSSDPRDIDQDNRSTSPSIYSPGSVENDSDSSSGLSQGPARPYHPPPLFPPSPQPPDSTPRQPEASFEPHPSVTPTGYHAPMEPPTSRMFQAPPGAPPPHPQLYPGGTGGVLSGPPMGPKGGGAASSVGGPNGGKQHPPPTTPISVSSSGASGAPPTKPPTTPVGGGNLPSAPPPANFPHVTPNLPPPPALRPLNNASASPPGLGAQPLPGHLPSPHAMGQGMGGLPPGPEKGPTLAPSPHSLPPASSSAPAPPMRFPYSSSSSSSAAASSSSSSSSSSASPFPASQALPSYPHSFPPPTSLSVSNQPPKYTQPSLPSQAVWSQGPPPPPPYGRLLANSNAHPGPFPPSTGAQSTAHPPVSTHHHHHQQQQQQQQQQQQQQQQQQQHHGNSGPPPPGAFPHPLEGGSSHHAHPYAMSPSLGSLRPYPPGPAHLPPPHSQVSYSQAGPNGPPVSSSSNSSSSTSQGSYPCSHPSPSQGPQGAPYPFPPVPTVTTSSATLSTVIATVASSPAGYKTASPPGPPPYGKRAPSPGAYKTATPPGYKPGSPPSFRTGTPPGYRGTSPPAGPGTFKPGSPTVGPGPLPPAGPSGLPSLPPPPAAPASGPPLSATQIKQEPAEEYETPESPVPPARSPSPPPKVVDVPSHASQSARFNKHLDRGFNSCARSDLYFVPLEGSKLAKKRADLVEKVRREAEQRAREEKEREREREREKEREREKERELERSVKLAQEGRAPVECPSLGPVPHRPPFEPGSAVATVPPYLGPDTPALRTLSEYARPHVMSPGNRNHPFYVPLGAVDPGLLGYNVPALYSSDPAAREREREARERDLRDRLKPGFEVKPSELEPLHGVPGPGLDPFPRHGGLALQPGPPGLHPFPFHPSLGPLERERLALAAGPALRPDMSYAERLAAERQHAERVAALGNDPLARLQMLNVTPHHHQHSHIHSHLHLHQQDAIHAASASVHPLIDPLASGSHLTRIPYPAGTLPNPLLPHPLHENEVLRHQLFAAPYRDLPASLSAPMSAAHQLQAMHAQSAELQRLALEQQQWLHAHHPLHSVPLPAQEDYYSHLKKESDKPL [ATN1],53.9,57,0.405,0.377
MNSTEFTEDVEEVLKSITVKVETEAEDAALDCSVNSRTSEKHSVDSVLTALQDSSKRKQLVSDGLLDSVPGVKRRRLIPEALLAGMRNRENSSPCQGNGEQAGRGRSLGNVWPGEEEPCNDATTPSYKKPLYGISHKIMEKKNPPSGDLLNVYELFEKANASNSPSSLRLLNEPQKRDCGSTGAGTDNDPNIYFLIQKMFYMLNTLTSNMSQLHSKVDLLSLEVSRIKKQVSPTEMVAKFQPPPEYQLTAAELKQIVDQSLSGGDLACRLLVQLFPELFSDVDFSRGCSACGFAAKRKLESLHLQLIRNYVEVYYPSVKDTAVWQAECLPQLNDFFSRFWAQREMEDSQPSGQVASFFEAEQVDPGHFLDNKDQEEALSLDRSSTIASDHVVDTQDLTEFLDEASSPGEFAVFLLHRLFPELFDHRKLGEQYSCYGDGGKQELDPQRLQIIRNYTEIYFPDMQEEEAWLQQCAQRINDELEGLGLDAGSEGDPPRDDCYDSSSLPDDISVVKVEDSFEGERPGRRSKKIWLVPIDFDKLEIPQPDFEVPGADCLLSKEQLRSIYESSLSIGNFASRLLVHLFPELFTHENLRKQYNCSGSLGKKQLDPSRIKLIRHYVQLLYPRAKNDRVWTLEFVGKLDERCRRRDTEQRRSYQQQRKVHVPGPECRDLTSYAINPERFREEFEGPPLPPERSSKDFCKIPLDELVVPSPDFPVPSPYLLSDKEVREIVQQSLSVGNFAARLLVRLFPELFTAENLRLQYNHSGACNKKQLDPTRLRLIRHYVEAVYPVEKMEEVWHYECIPSIDERCRRPNRKKCDILKKAKKVEK [BEND3],,48.1,0.152,-0.105
MSLVIRNLQRVIPIRRAPLRSKIEIVRRILGVQKFDLGIICVDNKNIQHINRIYRDRNVPTDVLSFPFHEHLKAGEFPQPDFPDDYNLGDIFLGVEYIFHQCKENEDYNDVLTVTATHGLCHLLGFTHGTEAEWQQMFQKEKAVLDELGRRTGTRLQPLTRGLFGGS [YBEY],45.4,49.7,0.0965,-0.21
MVAYWRQAGLSYIRYSQICAKAVRDALKTEFKANAEKTSGSNVKIVKVKKE [ATP5E],53.2,51.8,0.368,-0.106
MAELGLNEHHQNEVINYMRFARSKRGLRLKTVDSCFQDLKESRLVEDTFTIDEVSEVLNGLQAVVHSEVESELINTAYTNVLLLRQLFAQAEKWYLKLQTDISELENRELLEQVAEFEKAEITSSNKKPILDVTKPKLAPLNEGGTAELLNKEILRLQEENEKLKSRLKTIEIQATNALDEKSKLEKALQDLQLDQGNQKDFIKAQDLSNLENTVAALKSEFQKTLNDKTENQKSLEENLATAKHDLLRVQEQLHMAEKELEKKFQQTAAYRNMKEILTKKNDQIKDLRKRLAQYEPED [LZTFL1],53.2,52.7,0.0593,0.713
MAGPESDAQYQFTGIKKYFNSYTLTGRMNCVLATYGSIALIVLYFKLRSKKTPAVKAT [USMG5],55,52.6,-0.0955,-1.21
MAQQANVGELLAMLDSPMLGVRDDVTAVFKENLNSDRGPMLVNTLVDYYLETSSQPALHILTTLQEPHDKHLLDRINEYVGKAATRLSILSLLGHVIRLQPSWKHKLSQAPLLPSLLKCLKMDTDVVVLTTGVLVLITMLPMIPQSGKQHLLDFFDIFGRLSSWCLKKPGHVAEVYLVHLHASVYALFHRLYGMYPCNFVSFLRSHYSMKENLETFEEVVKPMMEHVRIHPELVTGSKDHELDPRRWKRLETHDVVIECAKISLDPTEASYEDGYSVSHQISARFPHRSADVTTSPYADTQNSYGCATSTPYSTSRLMLLNMPGQLPQTLSSPSTRLITEPPQATLWSPSMVCGMTTPPTSPGNVPPDLSHPYSKVFGTTAGGKGTPLGTPATSPPPAPLCHSDDYVHISLPQATVTPPRKEERMDSARPCLHRQHHLLNDRGSEEPPGSKGSVTLSDLPGFLGDLASEEDSIEKDKEEAAISRELSEITTAEAEPVVPRGGFDSPFYRDSLPGSQRKTHSAASSSQGASVNPEPLHSSLDKLGPDTPKQAFTPIDLPCGSADESPAGDRECQTSLETSIFTPSPCKIPPPTRVGFGSGQPPPYDHLFEVALPKTAHHFVIRKTEELLKKAKGNTEEDGVPSTSPMEVLDRLIQQGADAHSKELNKLPLPSKSVDWTHFGGSPPSDEIRTLRDQLLLLHNQLLYERFKRQQHALRNRRLLRKVIKAAALEEHNAAMKDQLKLQEKDIQMWKVSLQKEQARYNQLQEQRDTMVTKLHSQIRQLQHDREEFYNQSQELQTKLEDCRNMIAELRIELKKANNKVCHTELLLSQVSQKLSNSESVQQQMEFLNRQLLVLGEVNELYLEQLQNKHSDTTKEVEMMKAAYRKELEKNRSHVLQQTQRLDTSQKRILELESHLAKKDHLLLEQKKYLEDVKLQARGQLQAAESRYEAQKRITQVFELEILDLYGRLEKDGLLKKLEEEKAEAAEAAEERLDCCNDGCSDSMVGHNEEASGHNGETKTPRPSSARGSSGSRGGGGSSSSSSELSTPEKPPHQRAGPFSSRWETTMGEASASIPTTVGSLPSSKSFLGMKARELFRNKSESQCDEDGMTSSLSESLKTELGKDLGVEAKIPLNLDGPHPSPPTPDSVGQLHIMDYNETHHEHS [TSC1],50.2,50.7,-0.187,0.0426
MEQPWPPPGPWSLPRAEGEAEEESDFDVFPSSPRCPQLPGGGAQMYSHGIELACQKQKEFVKSSVACKWNLAEAQQKLGSLALHNSESLDQEHAKAQTAVSELRQREEEWRQKEEALVQREKMCLWSTDAISKDVFNKSFINQDKRKDTEDEDKSESFMQKYEQKIRHFGMLSRWDDSQRFLSDHPYLVCEETAKYLILWCFHLEAEKKGALMEQIAHQAVVMQFIMEMAKNCNVDPRGCFRLFFQKAKAEEEGYFEAFKNELEAFKSRVRLYSQSQSFQPMTVQNHVPHSGVGSIGLLESLPQNPDYLQYSISTALCSLNSVVHKEDDEPKMMDTV [CDC37L1],46.3,50.9,-0.0113,0.655
MAQEEEDVRDYNLTEEQKAIKAKYPPVNRKYEYLDHTADVQLHAWGDTLEEAFEQCAMAMFGYMTDTGTVEPLQTVEVETQGDDLQSLLFHFLDEWLYKFSADEFFIPREVKVLSIDQRNFKLRSIGWGEEFSLSKHPQGTEVKAITYSAMQVYNEENPEVFVIIDI [ZBTB8OS],52.6,53.1,0.0908,0.153
MTGKSVKDVDRYQAVLANLLLEEDNKFCADCQSKGPRWASWNIGVFICIRCAGIHRNLGVHISRVKSVNLDQWTQEQIQCMQEMGNGKANRLYEAYLPETFRRPQIDPAVEGFIRDKYEKKKYMDRSLDINAFRKEKDDKWKRGSEPVPEKKLEPVVFEKVKMPQKKEDPQLPRKSSPKSTAPVMDLLGLDAPVACSIANSKTSNTLEKDLDLLASVPSPSSSGSRKVVGSMPTAGSAGSVPENLNLFPEPGSKSEEIGKKQLSKDSILSLYGSQTPQMPTQAMFMAPAQMAYPTAYPSFPGVTPPNSIMGSMMPPPVGMVAQPGASGMVAPMAMPAGYMGGMQASMMGVPNGMMTTQQAGYMAGMAAMPQTVYGVQPAQQLQWNLTQMTQQMAGMNFYGANGMMNYGQSMSGGNGQAANQTLSPQMWK [SMAP2],48.3,49.6,-0.0647,0.111
MSGSVLFTAGERWRCFLTPSRSSLYWALHNFCCRKKSTTPKKITPNVTFCDENAKEPENALDKLFSSEQQASILHVLNTASTKELEAFRLLRGRRSINIVEHRENFGPFQNLESLMNVPLFKYKSTVQVCNSILCPKTGREKRKSPENRFLRKLLKPDIERERLKAVNSIISIVFGTRRIAWAHLDRKLTVLDWQQSDRWSLMRGIYSSSVYLEEISSIISKMPKADFYVLEKTGLSIQNSSLFPILLHFHIMEAMLYALLNKTFAQDGQHQVLSMNRNAVGKHFELMIGDSRTSGKELVKQFLFDSILKADPRVFFPSDKIVHYRQMFLSTELQRVEELYDSLLQAIAFYELAVFDSQP [TEFM],50.9,49.1,0.119,-0.375
